Measurements taken from publication PMC9475553, “SHF Acts as a Novel Tumor Suppressor in Glioblastoma Multiforme by Disrupting STAT3 Dimerization” (Advanced Science, 2022).

Molecular target: T1, recombinant STAT3 (immobilized, static adsorption assay) (UniProt P40763 1-770)
T1 construct: STAT3, called 'recombinant STAT3' in the legend and 'immobilized STAT3 peptide' in the results; also called immobilized STAT3; STAT3 (powder)
Assay: static adsorption equilibrium assay; immobilized STAT3 (85 nmol g^-1 wet gel) in 20 mL PBS with 2-20 µM C16 or scramble, stirred 12 h; free peptide by absorbance at 240 nm; Langmuir isotherm
Conditions: both partners purified

T1 sequence (P40763 whole entry): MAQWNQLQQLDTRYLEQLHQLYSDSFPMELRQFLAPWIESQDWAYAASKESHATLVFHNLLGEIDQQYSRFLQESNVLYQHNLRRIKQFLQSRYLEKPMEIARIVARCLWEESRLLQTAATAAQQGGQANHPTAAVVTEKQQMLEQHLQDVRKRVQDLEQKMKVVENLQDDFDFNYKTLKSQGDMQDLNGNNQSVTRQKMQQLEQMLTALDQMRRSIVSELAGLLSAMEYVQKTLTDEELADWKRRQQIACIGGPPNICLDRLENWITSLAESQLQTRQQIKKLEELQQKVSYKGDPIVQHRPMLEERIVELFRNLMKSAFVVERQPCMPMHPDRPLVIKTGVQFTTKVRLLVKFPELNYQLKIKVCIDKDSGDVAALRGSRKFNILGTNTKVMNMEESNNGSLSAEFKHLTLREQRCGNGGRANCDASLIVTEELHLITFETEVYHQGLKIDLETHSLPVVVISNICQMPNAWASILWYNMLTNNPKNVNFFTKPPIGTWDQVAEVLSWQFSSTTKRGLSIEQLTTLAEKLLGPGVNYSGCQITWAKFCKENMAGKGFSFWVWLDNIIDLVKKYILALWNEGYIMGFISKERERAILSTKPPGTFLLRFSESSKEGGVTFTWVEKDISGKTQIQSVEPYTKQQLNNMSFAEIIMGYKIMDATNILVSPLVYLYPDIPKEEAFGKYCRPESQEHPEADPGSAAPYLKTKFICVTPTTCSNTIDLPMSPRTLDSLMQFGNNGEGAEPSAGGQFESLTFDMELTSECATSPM

B1: C16 peptide (derived from the STAT3-binding sites of SHF) (peptide, UniProt Q7M4L6 388-421, looked up)
peptide: PFSSVPEIVHHYASRKLPIKGAEHMSLLYPVAIR
modifications: palmitic acid at the N-terminus; amidated C-terminus
notes: '3× His tags' is not explained further (three histidines or three His tags); source: synthetic peptide (Genscript; solid-phase Fmoc synthesis, RP-HPLC, purity above 95%); not shown: 3× His tags, C-terminal, kept
stoichiometry N: 1
